# Legend:
# [1] = tested on: AAVS1 ZFN left (synthetic); assay: cell_activity; settings: pair with right ZFN; A549 clones positive for HindIII site (308 of 933); none with oligo alone
# [2] = tested on: AAVS1 ZFN right (synthetic); assay: cell_activity; settings: pair with left ZFN; A549 clones positive for HindIII site (308 of 933); none with oligo alone
Sequence,activity [1],activity [2]
ACCCCACAGTGG (double strand) [AAVS1 left ZFN binding site],33%,
TAGGGACAGGAT (double strand) [AAVS1 right ZFN binding site],,33%

# Reference: patent US20130137180
